Where a chain is given by its changes, count along the chain named.

First the molecules themselves.
T1: AP-Nogo66 (Homo sapiens, UniProt Q9NQC3)
T1 construct: made in house; NgR mutants: COS-7
T1 sequence (Q9NQC3 1055-1120 limits assumed): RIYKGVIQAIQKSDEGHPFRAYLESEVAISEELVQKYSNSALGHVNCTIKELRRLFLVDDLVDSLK

T2: AP-B4C (Homo sapiens, UniProt Q9NQC3)
T2 construct: a.a; 950-1018 (AmNg B4C); made in house; host or cells: AP ligand: HEK293T conditioned medium; NgR mutants: COS-7
T2 sequence (Q9NQC3 950-1018): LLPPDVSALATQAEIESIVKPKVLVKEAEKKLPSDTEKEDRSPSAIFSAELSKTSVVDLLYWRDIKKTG

T3: AP-Lingo-1 (Homo sapiens, UniProt Q96FE5)
T3 construct: made in house; NgR mutants: COS-7
T3 sequence (Q96FE5 40-538 limits assumed): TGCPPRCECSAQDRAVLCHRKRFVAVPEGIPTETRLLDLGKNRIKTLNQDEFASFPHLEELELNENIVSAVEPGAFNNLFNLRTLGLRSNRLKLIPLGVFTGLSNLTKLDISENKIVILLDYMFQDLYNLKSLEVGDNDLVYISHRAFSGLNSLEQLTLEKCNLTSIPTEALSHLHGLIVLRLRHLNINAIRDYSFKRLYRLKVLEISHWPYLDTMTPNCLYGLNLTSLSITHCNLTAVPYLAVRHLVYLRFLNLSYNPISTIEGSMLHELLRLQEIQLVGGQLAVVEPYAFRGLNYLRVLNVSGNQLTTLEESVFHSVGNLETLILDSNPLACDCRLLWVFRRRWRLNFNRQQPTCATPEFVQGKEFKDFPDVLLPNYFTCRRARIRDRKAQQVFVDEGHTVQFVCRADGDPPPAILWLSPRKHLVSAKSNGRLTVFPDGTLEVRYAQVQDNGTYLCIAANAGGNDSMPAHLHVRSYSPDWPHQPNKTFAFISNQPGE

B1: 216, 218, 220: human NgR1 mutant, listed residues mutated to alanine (protein)
chain: CPGACVCYNEPKVTTSCPQQGLQAVPVGIPAASQRIFLHGNRISHVPAASFRACRNLTILWLHSNVLARIDAAAFTGLALLEQLDLSDNAQLRSVDPATFHGLGRLHTLHLDRCGLQELGPGLFRGLAALQYLYLQDNALQALPDDTFRDLGNLTHLFLHGNRISSVPERAFRGLHSLDRLLLHQNRVAAVAPAAFRDLGRLMTLYLFANNLSALPTEALAPLRALQYLRLNDNPWVCDCRARPLWAWLQKFRGSSSEVPCSLPQRLAGRDLKRLAANDLQGCAVATGPYHPIWTGRATDEEPLGLPKCCQPDAADKASVLEPGRPASAGNALKGRVPPGDSPPGNGSGPRHINDSPFGTLPGSAEPPLTAVRPEGSEPPGFPTSGPRRRPGCSRKNRTRSHCRLGQAGSGGGGTGDSEGSGALPSLTCSLTPLGLALVLWTVLGPC
B2: 237, 256, 259: human NgR1 mutant, listed residues mutated to alanine (protein)
chain: B1 chain with A190H, A192H, A194H, N211A, R230A, D233A
B3: 87, 89: human NgR1 mutant, listed residues mutated to alanine (protein)
chain: B1 chain with W61A, H63A, A190H, A192H, A194H
B4: 220, 223, 224: human NgR1 mutant, listed residues mutated to alanine (protein)
chain: B1 chain with A190H, A192H, R197A, D198A
B5: 61, 108, 131: human NgR1 mutant, listed residues mutated to alanine (protein)
chain: B1 chain with R35A, E82A, R105A, A190H, A192H, A194H
B6: 63, 65, 87, 89: human NgR1 mutant, listed residues mutated to alanine (protein)
chain: B1 chain with F37A, H39A, W61A, H63A, A190H, A192H, A194H
B7: 256, 259, 284: human NgR1 mutant, listed residues mutated to alanine (protein)
chain: B1 chain with A190H, A192H, A194H, R230A, D233A, E258A
B8: 237, 256, 284: human NgR1 mutant, listed residues mutated to alanine (protein)
chain: B1 chain with A190H, A192H, A194H, N211A, R230A, E258A

One experiment concerns NgR ligands. The experiment in a line: Binding of alanine substituted NgR mutants to NgR ligands, summary categories. Particulars: AP-Nogo66, AP-B4C, AP-B4C66, AP-Lingo-1, AP-OMgp and AP-MAG; compared to wild type NgR. The essentials: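 Human NgR1 template; 74 mutants with 1-8 solvent-exposed charged surface residues (within 5 Å) Ala-substituted, plus glycosylation-site mutants and D259N polymorphism. Mutants tested for binding of AP-tagged Nogo66, Amino-Nogo-B4C, B4C66, MAG, OMgp and Lingo-1; each classed as losing all, keeping all, or selective ligand binding.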
With B1, the “ligand binding category of NgR mutant (Table II)” value (“ligand binding category” below) is “Differential binding”.

Turning to B2, the “ligand binding category” value is recorded as “Differential binding”.

For the molecule B3, the “ligand binding category” value is listed as “Differential binding”.

For the molecule B4, the “ligand binding category” value is recorded as “Differential binding”.

With B5, the “ligand binding category” value is on record as “Differential binding”.

In the case of B6, the “ligand binding category” value is on record as “Differential binding”.

As for B7, the “ligand binding category” value is “Differential binding”.

Take B8: the “ligand binding category” value is reported as “Differential binding”.

In the next experiment the target is T1, AP-Nogo66. Nature of the experiment: Binding of AP-Nogo66 to COS-7 cells expressing NgR mutants. More on the design: key: ++: WT level; +: weaker than wild type; trace binding; −: no binding. The following applies: AP-Ng66 5 nM; level of binding compared to wild type NgR. As for the experimental part:
(§1) FIG. 4A. […] Binding of AP or AP fused NgR ligands to COS-7 cells expressing different NgR mutants as indicated. The concentrations of ligands applied were: AP, 30 nM; AP-Ng66, 5 nM; AP-Ng33, 10 nM; AP-B4C, 10 nM; AP-B4C66, 0.5 nM; AP-Lingo-1, 10 nM; AP-OMGP, 10 nM; AP-MAG, 30 nM. These concentrations are close to the binding Kd of these proteins to NgR so that any […] is reflected linearly in staining.
(§2) FIG. 4B. AP binding of NgR ligands to NgR mutants expressed as percentage of wild type NgR. AP after incubation with AP fused ligands, AP bound to COS-7 cells expressing NgR or NgR mutants were stained and measured.
(§3) To better define how multiple ligands bind to the NgR protein, we examined a series of Ala-substituted NgR for ligand binding activity. NgR mutagenesis was done using the Quick Change Multisite Directed Mutagenesis Kit (Stratagene catalog #200514). Human NgR1 was used as a template. Ala substitutions were generated for each of the charged residues predicted to be solvent accessible at the surface of the ligand binding domain of NgR (Barton, W. A., et al., Embo J. 22:3291-3302 (2003); He, X. L., et al., Neuron 38:177-185 (2003)). We generated mutants in which 1-8 surface residues localized within 5 A of one another were Ala-substituted. Because of the coiling nature of the LRR structure, as residues juxtaposed on the protein surface are commonly separated by approximately 25 residues in the primary structure. In addition to mutations in specific charged surface patches, other mutations were targeted to glycosylation sites and to regions predicted to be involved in ligand binding based on the NgR structure (Barton, W. A., et al., Embo J. 22:3291-3302 (2003); He, X. L., et al., Neuron 38:177-185 (2003)). In addition, a variant corresponding to a human polymorphism was examined (D259N). None of the mutations altered the Leu residues that define the LRR structure itself or the Cys residues critical in the amino and carboxyl terminal capping domains. The vast majority of such Ala surface substitution mutants were expressed as immunoreactive polypeptides with a molecular weight and an expression level indistinguishable from wild type NgR (FIG. 4C and data not shown).
(§4) This collection of 74 individual NgR mutants was interrogated for AP-Nogo-66, AP-Amino-Nogo-B4C, AP-MAG, AP-OMgp, and AP-Lingo-1 binding. AP-Nogo66, AP-MAG, AP-OMGP and AP-Lingo-1 constructs are described elsewhere (Fournier, A. E., et al., Nature 409:341-346 (2001); Liu, B. P., et al., Science 297:1190-1193 (2002); Mi, S., et al., Nat. Neurosci. 7:221-228 (2004); Wang, K. C., et al., Nature 417:941-944 (2002b)). The properties of the NgR mutants fell into one of three major categories (Table II and FIG. 5). A number of Ala substituted NgR polypeptides bound all of the ligands at wild type levels. […] In addition, a significant extent of the concave surface is dispensable for ligand binding.
(§5) Binding of Alanine substituted NgR mutants to NgR ligands were compared to wild type NgR and the levels of binding were categorized as ++ (WT level), + (weaker than wild type), tr (trace binding), − (no binding), N/A (not determined). NgR mutant proteins were also subjected to SDS-PAGE and probed by anti-NgR antibodies. Mutants with expression level similar to WT NgR were labeled as “y”.
For B1, the Ng66 entry is listed as “++”.

For the molecule B2, the Ng66 entry was “tr”.

For the molecule B3, the Ng66 entry was “++”.

As for B4, the Ng66 result is reported as “+”.

As to B5, the Ng66 entry is on record as “tr”.

Consider B6, for which the Ng66 result is “++”.

B7: the Ng66 result is reported as “+”.

As for B8, the Ng66 entry is given as “++”.

A further experiment addresses T2, AP-B4C. Nature of the experiment: Binding of AP-B4C to COS-7 cells expressing NgR mutants. Also on record: key: ++: WT level; +: weaker than wild type; trace binding; −: no binding. The following applies: AP-B4C 10 nM; level of binding compared to wild type NgR. On the procedure: as §1, §2, §3, §4, §5
For B1, the B4C entry was “++”.

For B2, the B4C entry is “tr”.

For the molecule B3, the B4C result is recorded as “++”.

Turning to B4, the B4C result is recorded as “+”.

With B5, the B4C result was “+”.

Turning to B6, the B4C entry was “++”.

On to B7, for which the B4C entry is given as “+”.

In the case of B8, the B4C entry is “++”.

A further experiment relates to AP-B4C66. The experiment in a line: Binding of AP-B4C66 to COS-7 cells expressing NgR mutants. More on the design: key: ++: WT level; +: weaker than wild type; trace binding; −: no binding. The following applies: AP-B4C66 0.5 nM; level of binding compared to wild type NgR. On the procedure: as §1, §2, §3, §4, §5
Consider B1, for which the B4C-66 entry is listed as “++”.

Consider B2, for which the B4C-66 result is given as “+”.

As to B3, the B4C-66 result was “++”.

As for B4, the B4C-66 result was “+”.

As for B5, the B4C-66 result is recorded as “+”.

As to B6, the B4C-66 result is listed as “++”.

For B7, the B4C-66 result is on record as “++”.

Take B8: the B4C-66 result is given as “++”.

Another experiment addresses T3, AP-Lingo-1. Nature of the experiment: Binding of AP-Lingo-1 to COS-7 cells expressing NgR mutants. More on the design: key: ++: WT level; +: weaker than wild type; trace binding; −: no binding. Particulars: AP-Lingo-1 10 nM; level of binding compared to wild type NgR. On the procedure:
as §1, §2, §3, §4, §5
In the case of B1, the Lingo-1 result was “+”.

In the case of B2, the Lingo-1 result was “+”.

For the molecule B3, the Lingo-1 entry is “−”.

As for B4, the Lingo-1 entry is listed as “−”.

As for B5, the Lingo-1 result was “−”.

Regarding B6, the Lingo-1 result is given as “−”.

On to B7, for which the Lingo-1 result is recorded as “++”.

With B8, the Lingo-1 entry is listed as “++”.

The next experiment has as its system AP-OMgp. Nature of the experiment: Binding of AP-OMgp to COS-7 cells expressing NgR mutants. Particulars: AP-OMGP 10 nM; level of binding compared to wild type NgR. More on the design: key: ++: WT level; +: weaker than wild type; trace binding; −: no binding. As for the experimental part: as §1, §2, §3, §4, §5
On to B1, for which the OMgp result is “+”.

For B2, the OMgp result is “tr”.

For the molecule B3, the OMgp result is “+”.

Take B4: the OMgp result is listed as “−”.

In the case of B5, the OMgp result was “−”.

With B6, the OMgp entry is recorded as “+”.

As for B7, the OMgp entry is listed as “+”.

For B8, the OMgp entry is recorded as “+”.

The subject of another experiment is AP-MAG. The experiment in a line: Binding of AP-MAG to COS-7 cells expressing NgR mutants. More on the design: key: ++: WT level; +: weaker than wild type; trace binding; −: no binding. Particulars: AP-MAG 30 nM; level of binding compared to wild type NgR. On the procedure: as §1, §2, §3, §4, §5
As to B1, the MAG entry is listed as “tr”.

For B2, the MAG entry was “−”.

Consider B3, for which the MAG result is “+”.

For the molecule B4, the MAG result is listed as “tr”.

Take B5: the MAG entry is “−”.

As for B6, the MAG entry is given as “−”.

Regarding B7, the MAG entry is “−”.

With B8, the MAG entry is “−”.

For the origin of these results see patent US20090111753A1, “Nogo-A Polypeptide Fragments, Variant Nogo Receptor-1 Polypeptides, and Uses Thereof” (Yale University, priority 2004, published 2009).
